Reference: the nanobody polyreactivity screen of Harvey et al. (2022)

Assay: yeast display, Sf9 membrane polyspecificity reagent, FACS + sequencing; frameworks hold sequencing errors
Procedure, shortened: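 Synthetic nanobody libraries on Saccharomyces cerevisiae BJ5465 were galactose-induced for 36–48 hours, stained 1 hour at 4 °C with 10% biotinylated, detergent-solubilized Sf9 membrane reagent and enriched on streptavidin microbeads. FACS then separated cells into low and high (top ~1%) gates by anti-HA (expression) and streptavidin (reagent binding) fluorescence. Genes were colony-PCR amplified, MiSeq 2 × 250 sequenced and CDR-length filtered. A clone's polyreactivity label is that of its gate of origin.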

Sequence | polyreactivity (PSR sort gate)
QVQIVESGGGLVQAGGSLRLSCAASGRIFGPYAMVWYRQAPGKERELVAAIRASSSSTYYADSVKGRFTISRDNAKNTVYLQMNSLKPEDTAVYYCAADWYYGYAWKYGYWGQVTQVTVSS | low polyreactivity
QVQIVESGGGLVQAGGSLRLSCAASGRIFNIYAMGWYRQAPGKERELVADIRWNGGSTYYADSVKGRFTISRDNAKNTVYLQMNSLKPEDTAVYYCAAARRRRFYDYYNAWYDVDYWGQGTQVTVSS | low polyreactivity
QVQIVESGGGLVQAGGSLRLSCAASGRIFRNTMGWYIQAPGKERDLVAAITDTTDSTYYADSVKGRFTISRDNAKNTVYLQMNSLKPEDSAVYYCAARYGGYVNRPYYYWGHGTQVTVSS | low polyreactivity
QVQIVESGGGLVQAGGSLRLSCAASGRIFSQNTMGWYRQAPGKERELVAVISWRGGRTSYADSVKGRFTISRDNAQNTVYLQMNSLKPEDTAVYYCNAKRYAGSNYDYWGQGTQVTVSS | high polyreactivity
QVQIVESGGGLVQAGGSLRLSCAASGRISEANAMGRYRQATWKERELVAAIDFSDGSTYYADSVKGRFTISRDNAKNTVYLQMNSLKPEDTAVYYCAADDQYYPYDYWGLGTQVTVSS | low polyreactivity
QVQIVESGGGLVQAGGSLRLSCAASGRTFNQYAMGWYRQAPVKERELVAAISASGGNTYYADSVKGRFTISRDNAKNNVYVQMNSLKQEDTEVYYCADKQSSSRYYGNDYWGQGTQVTVSS | high polyreactivity
QVQIVESGGGLVQAGGSLRLSCAASGRTFRENAMGWYRQAPGKERELVAAAISSGDGTNYADSVKGRFTISRDYAKNTVYLQMNSLQPEDTAVYYCAADGPRDSYDYWGQGTQVTVSS | low polyreactivity
QVQIVESGGGLVQAGGSLRLSCAASGRTFTAYAMGWYRQAPGKERELVAAITTSGGTTYYADSVKGRFTISRDNAKNTVYLQMKSLKPEDTAVYYCAADVVVSWWLIYDYWGQGTQVTVSS | low polyreactivity
QVQIVESGGGLVQAGGSLRLSCAASGRTVGYNPMGWYRQAPGKETELVAVIRSGGSTYYADSVKGRFTISRDNAQYSVYLQLHSLIPEDSEVYYCAATGLYNVTSPYSYKYDYWGQCTQVTVSS | low polyreactivity
QVQIVESGGGLVQAGGSLRLSCAASGSICTHNDMGWYRPSTWKERELVAAISTSGGRTYDADSVKGSFTISRDTAKNTVYLPMNSLKPEDTAVYYCNDRSVRSRYDYWGQGTQVTVSS | high polyreactivity
QVQIVESGGGLVQAGGSLRLSCAASGSIFFYYSMGWYRQAPGKERELVAAISVGGSTYYADSVKGRFTISRDNAKNTVYLQMNSLKPEDTAVYSFNAVPAKGYVTVVRYYYWGQGTQVTVSS | low polyreactivity
QVQIVESGGGLVQAGGSLRLSCAASGSIFGVNAMGWYRQAPGKERELVASITGGDSTNYADSVKGRFTISRDNAKNTVYLQMNSLKPEDTAVYYCAKDHYYRYEEGDYWGQGTQVTVSS | low polyreactivity
QVQIVESGGGLVQAGGSLRLSCAASGSIFITYAMGWYRPAPGKERELVAAIRDSGDRTYYADSVKGRFTISRDNAKNTVYLQMNSLKPEDTAVYYCNARWQEPLKYDYWGQGTQVTVSS | low polyreactivity
QVQIVESGGGLVQAGGSLRLSCAASGSIFKYYAMGSYRQAPVKERELVAAISSGGSTKYADSVKARFTISRDNEKNTVYLHMTRLIPEDTAVYYCAARDPSRHARRAYDYWGQGTQVTVSS | low polyreactivity
QVQIVESGGGLVQAGGSLRLSCAASGSIFRYYAMAWYRQETGKERELVARISSGVSTNYADSVKGRFTISRDNAKNSVYLQMNSLKPEDTAVYYCNARTGWTGRGRYSLRYDYWGQGTQVTVSS | high polyreactivity
QVQIVESGGGLVQAGGSLRLSCAASGSIFSRYAMGWYRQAPGKERELVAAISGRGGGTYYADSVKGRFTISRDNAKNTVYLQMNSLKPEDTAVYYCAAQLGRPAYSRVSWRAYYYWGQGTQVTVSS | low polyreactivity
QVQIVESGGGLVQAGGSLRLSCAASGSIFSVYAMGWYRQAPGKERELVAAIRYGDTSTYYADSVKGRFTISRDNAKNTVYFQMNSLKPEDTAVYYCAADLYAYEREYWGQGTQVTVSS | low polyreactivity
QVQIVESGGGLVQAGGSLRLSCAASGSIFYRYAMGWYRQAPGKEREFVAAIDYSGSITRYADSVKGRFTISRDNAKNTVYLQMNSLKPEDTAVYYCAARSYAKDWGGYNYWGQGTQVTVSS | high polyreactivity
QVQIVESGGGLVQAGGSLRLSCAASGSILYEYAMGWYRQAPGKERELVAAISSGDSTNYADSVKGRFTISRDNAKNTVYLQMNSLNPEDTAVYDCNRDFPRERFTYKFDYWGQGTQVTVSS | low polyreactivity
QVQIVESGGGLVQAGGSLRLSCAASGSTFTRYTMGWYRQAPGKERELVAAISGRGGSTYYADSVKGRFTISRDNAKNTVYLQMNSLKPEDTAVYYCNKVYWRRGSLEYWGQGTQVTVSS | high polyreactivity
QVQIVESGGGLVQAGGSLRLSCAASGSTSWSNAMGWYRQAPRKERELVAAITTGASTYYADSVKGRFTISRDNSKNTVYLQMNSLKLEDTAVYYCAADPWVLWSYYYWGQGTQVTVSS | low polyreactivity
QVQIVESGGGLVQAGGSLRLSCAASGSTYDTYAMVWYRQAPGKERELVAGITRRGGRTYYADSVKGRFTISRDNAKNTVYLQMISLKPEDTAVYYCAARTYGYYLYDYWGQGSQVTVSS | high polyreactivity

Sequence | polyreactivity (PSR sort gate)
QVQIVESGGGLVQAGGSLRLSCAASGTFSFYAMGWYRQAPGKERELVATIRSGGRTYYADSVKGRFTISRDNAKNTVYLQMNSLKPEDTAVYYCAKTGFLGLRQYGYWGQGTQVTVSS | high polyreactivity
QVQIVESGGGLVQAGGSLRLSCAASGTFTYYAMGWYRQAPGKERELVAAITWRGGNTYYADSVKGRFTISRDNAKNTVYLQKNSLKPEDTEVYYCAASLWPDYEYDYWGQGTQVTVSS | low polyreactivity
QVQIVESGGGLVQAGGSLRLSCAASGTTFDKYAMGWYRQAPGKERELVAAITTNGGNTYADSVKGRFTISRDNAKNTVYLQMNSLKPEDTAVYYCAADGPGGKGLYYYWGQGTQVTVSS | high polyreactivity
QVQIVESGGGLVQAGGSLRLSCAASRIIFSTYAMGWYRQAPGKEREFVAAITSTGSTNYADSVKGRFTISRDNEKNTVYLQMNSLKPEDTAVYYCAARYAGPSPTDTGHDYWGQGTQVTVSS | low polyreactivity
QVQIVESGGGLVQAGGSLRLSCADSGFISSHYAMGWYRQAPGKERELVAAISTNGGSTYYADSVKGRFTISRDNAKNTVYLQMNSLKPEDTSVYYCAAEFAVSFYWSWLGQDYNYWGQGTQVTVSS | high polyreactivity
QVQIVESGGGLVQAGGSLRLSCAPSGSTFWLYAMGWYRHAPGKERELVASISSRGGSTYYADSVTGRFTISRDNAKNTVYLQMNSLKPEDTAVYYCAAKDIRYDDEYWGQGTQVTVSS | low polyreactivity
QVQIVESGGGLVQAGGSLRLSCASSGRIFNTNAMGWYRQAPGKERELVAGITDSGDSTYYADSVKGRFTISRDNAKNTVYLQMNSLKPQDSAVYFCATDPASPYIYYYWGQGTQVTVSS | low polyreactivity
QVQIVESGGGLVQAGGSLRLSCASYGFTFWGYTMGWYRQAPGKERELVAAITSNGSTYYADSVKGRFTISRDNAQNTVYLQMNSLKPEDTAVYYCAATRGSSEYFYWGQGSQVTVSS | low polyreactivity
QVQIVESGGGLVQAGGSLRLSFAASGRTFGVYAMGWYRQAPGKERELVAAISATGGSTYYADSVKGRFTISRDNSKNTVYLQMNSLKPEDTAVYYCARGGTTLYWGLGTQVTVSS | high polyreactivity
QVQIVESGGGLVQAGGSLRLSGAASGRTFRPYTMGWYRPAPGKERELVARITSGGSTNYADSVKWRFTISRDNAKITVYLQMNSLKPEDTAVYYCNKPGYRLRLDDDYWGQGTQVTVSS | low polyreactivity
QVQIVESGGGLVQAGGSLRLSSAASGNIFVYYAMGGYRQAPGKERELVAALTSDVSTYYADSVKGRFTISRDNAKNTVYLQMNSLKPEDTAVYYCNKVTPGRYYYSVTTGDYWGQGTKVTVSS | low polyreactivity
QVQIVESGGGLVQAGGSLRLSSPASGRTLPSYAMGWYRQAPGKERELVAAITRSGGRTYYADSVKGRFTISRDNAKYTVYLQMNSLKPEDTAVYDCAARQDDYGKIYYYWGQGSQVTVSS | high polyreactivity
QVQIVESGGGLVQAGGSLRLTCAASGFTFYKKAMGWYIQAPGKERELVAAITSSGGSTYYADSVKGRFTISRDNAKNTVYLQMNSLKPEDTAVYYCAAYPQAYIADYDYWGQGTQVTVSS | low polyreactivity
QVQIVESGGGLVQAGGSLRLTCAASGSIFDVYTMGWYRQAPGKERELVAAISYSGGRTNYADSVKGRFTISRDNAKNTVYLQIYSLKPEDTAVYYCATTDGRTAWGVKDYYAKYNYWGQGTQVTVSS | low polyreactivity
QVQIVESGGGLVQAGGTLRLSCAASGFIFSSYGMGWYRKAPGKERELVADISGGGSTNYADSVKGRFTISRDNAKNSVYLQMNSLKPEETAVYYCNAQLIRSAAYDYWGQGTQVSVSS | low polyreactivity
QVQIVESGGGLVQAGRSLRLSCAASGSTFGSYAMGWYRQAPGKDRELVAAISASGGSTYYADSVKGRFTISRDNAKHTVYLQMNSLKPEDTAVYYCATVYYSARYTYWGQGTQVTVSS | high polyreactivity
QVQIVESGGGLVQAGVSLRLSCAASGLTIGVYAMGWYRQAPGKERELVAAISWSGGTTYYADSVKGRFTISRDNAKINFYLQMNSLKPEDTAVYYCAADYYTDVDYWGQGNQVTVSS | low polyreactivity
QVQIVESGGGLVQARGSIRFRCAASGRIIGTNTMGWYRQAPGKERELVAAITWSGGSTYYADSVKGRFTISRDKEKTTVYLQMYSLKPEDTAVYYCNVESEYAYHWPVDYWGQGTQVSVSS | low polyreactivity
QVQIVESGGGLVQAVGSLRLSCAASGFTFTYNAMGWYRQAPGKERELVAAISSGGRTYYADSVKGRFTISRDNAKNTVYLQMNSLKPEDTAVYYCNADPDQYTLRSITNDEDYWGQGTQVTVSS | low polyreactivity
QVQIVESGGGLVQPGGSLRLSCAASGRIFGRNAMGWYRQAPGKEWELVAAITTSASRTYYADSVKGRFTISRDNAKNTVYLQMNSLKPEDTAVYYCAARPSWYWYKGDYWGQGTQVTVSS | high polyreactivity
QVQIVESGGLLVQAGGSLRLSCAASGFIFNPNAMGWYRQAPGKERELVAAIRWSGGSTYYADSVQGRFTISRDNEKNTVYLQMNSLKPDDTAVYYCAANPRTTRYGRGYWGQGTQVSVSS | high polyreactivity
